Assay results as given in patent US9102763B2.

Molecular target: T1, Syndecan-1
T1 sequence (P18827 whole entry, species assumed, looked up): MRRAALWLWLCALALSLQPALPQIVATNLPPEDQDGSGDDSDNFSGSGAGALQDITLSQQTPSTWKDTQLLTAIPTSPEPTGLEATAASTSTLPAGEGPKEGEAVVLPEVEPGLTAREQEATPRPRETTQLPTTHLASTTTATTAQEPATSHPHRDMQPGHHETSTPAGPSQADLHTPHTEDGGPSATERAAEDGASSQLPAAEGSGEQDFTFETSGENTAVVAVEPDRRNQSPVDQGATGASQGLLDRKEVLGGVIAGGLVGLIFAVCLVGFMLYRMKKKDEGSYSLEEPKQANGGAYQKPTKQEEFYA

B1: lacritin (free lacritin released from Lac-ELP by thrombin cleavage) (ligand)
chain: MEDASSDSTGADPAQEAGTSKPNEEISGPAEPASPPETTTTAQETSAAAVQGTAKVTSSRQELNPLKSIVEKSILLTEQALAKAGKGMHGGVPGGKQFIENGSEFAQKLLKKFSLLKPWAGLVPR
B1 gave a minimal therapeutic concentration (β-hexosaminidase secretion, rabbit LGACs) of 10 µM.
